Laboratory results as given in patent US20060039904A1 (AstraZeneca / MedImmune, published 2006).
Values belong to the binder of their own block, whether it stands above or below them.

What was measured:
[1] = biological target: T1, FcγRIIIA (soluble receptor used as analyte in the BIAcore runs) (human, UniProt P08637 17-208); test: BIAcore run 1, IgG immobilized, soluble FcγRIIIA, Scatchard plot
[2] = biological target: T1, FcγRIIIA (soluble receptor used as …); test: BIAcore run 2, IgG immobilized, soluble FcγRIIIA, Scatchard plot
[3] = biological target: T1, FcγRIIIA (soluble receptor used as …); test: BIAcore run 1, ratio of isotherm KD values against wild type Vitaxin®
[4] = biological target: T1, FcγRIIIA (soluble receptor used as …); test: BIAcore run 2, ratio of isotherm KD values against wild type Vitaxin®
[5] = biological target: T1, FcγRIIIA (soluble receptor used as …); test: BIAcore run 1, IgG immobilized, soluble FcγRIIIA, steady-state isotherm
[6] = biological target: T1, FcγRIIIA (soluble receptor used as …); test: BIAcore run 2, IgG immobilized, soluble FcγRIIIA, steady-state isotherm

T1 sequence (P08637 17-208): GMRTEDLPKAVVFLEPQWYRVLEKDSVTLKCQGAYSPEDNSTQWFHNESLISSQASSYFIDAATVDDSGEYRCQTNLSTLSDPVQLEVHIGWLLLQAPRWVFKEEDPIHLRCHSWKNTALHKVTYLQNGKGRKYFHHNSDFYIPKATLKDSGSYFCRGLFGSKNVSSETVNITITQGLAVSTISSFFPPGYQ

Kd [1]: 458 nM | Kd [2]: 1220 nM | Fold increase over WT [3]: 6.5 fold | Fold increase over WT [4]: 7 fold | Kd [5]: 458 nM | Kd [6]: 1280 nM
B1: Vitaxin®-1M (Vitaxin® Fc variant I332E, IgG1) (antibody)
heavy: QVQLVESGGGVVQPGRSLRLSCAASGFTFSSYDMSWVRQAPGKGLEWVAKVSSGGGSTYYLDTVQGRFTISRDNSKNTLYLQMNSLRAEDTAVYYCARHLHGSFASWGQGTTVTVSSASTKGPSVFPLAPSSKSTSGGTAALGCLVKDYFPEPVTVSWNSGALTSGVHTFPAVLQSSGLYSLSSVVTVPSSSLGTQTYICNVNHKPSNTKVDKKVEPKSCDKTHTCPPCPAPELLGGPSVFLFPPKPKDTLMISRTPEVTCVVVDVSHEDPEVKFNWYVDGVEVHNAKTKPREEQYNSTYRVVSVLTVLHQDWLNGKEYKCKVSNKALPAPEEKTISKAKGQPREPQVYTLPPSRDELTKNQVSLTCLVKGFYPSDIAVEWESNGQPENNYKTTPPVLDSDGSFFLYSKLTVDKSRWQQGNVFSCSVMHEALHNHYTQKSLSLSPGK
VL: EIVLTQSPATLSLSPGERATLSCQASQSISNFLHWYQQRPGQAPRLLIRYRSQSISGIPARFSGSGSGTDFTLTISSLEPEDFAVYYCQQSGSWPLTFGGGTKVEIK
notes: Full length IgG1 with I332E in the Fc; expressed in 293H/HEK293 cells; also called I332E Fc variant; Vitaxin® Fc (I332E) variant

Kd [6]: 114 nM
B2: Vitaxin®-3M (Vitaxin® Fc variant S239D/A330L/I332E, IgG1) (antibody)
heavy: QVQLVESGGGVVQPGRSLRLSCAASGFTFSSYDMSWVRQAPGKGLEWVAKVSSGGGSTYYLDTVQGRFTISRDNSKNTLYLQMNSLRAEDTAVYYCARHLHGSFASWGQGTTVTVSSASTKGPSVFPLAPSSKSTSGGTAALGCLVKDYFPEPVTVSWNSGALTSGVHTFPAVLQSSGLYSLSSVVTVPSSSLGTQTYICNVNHKPSNTKVDKKVEPKSCDKTHTCPPCPAPELLGGPDVFLFPPKPKDTLMISRTPEVTCVVVDVSHEDPEVKFNWYVDGVEVHNAKTKPREEQYNSTYRVVSVLTVLHQDWLNGKEYKCKVSNKALPLPEEKTISKAKGQPREPQVYTLPPSRDELTKNQVSLTCLVKGFYPSDIAVEWESNGQPENNYKTTPPVLDSDGSFFLYSKLTVDKSRWQQGNVFSCSVMHEALHNHYTQKSLSLSPGK
VL: B1 VL
notes: I332E is used here; also called Vitaxin S239D/A330L/I332E
